This is an account of results in PMC10477060.

For this experiment, the target named is GST-tagged p65_(532–550) (human). Briefly: pull-down.

As to “His-DNA-PKcs_(541-988) (from UniProt P78527 541-988) (domain or fragment)”, the binding efficiency (bound fragment intensity/input fragment intensity) amounted to 17%. The substance “His-DNA-PKcs_(2408-2819) (from UniProt P78527 2408-2819) (domain or fragment)” registered a binding efficiency (bound fragment intensity/input fragment intensity) of 99%.
